What was measured:
[1] = biological target: Hsc82 C61-ATTO 550 (S. cerevisiae) (UniProt P15108)
[2] = biological target: Hsp82 C61-ATTO 550 (S. cerevisiae) (UniProt P02829)
[3] = biological target: Hsc82 C61-ATTO 550 (S. cerevisiae) (UniProt P15108); test: FRET or BRET; FRET chase: tenfold excess of unlabeled Hsp90 added to the FRET complex preequilibrated 30 min with 2 mM ATP, 30 °C; apparent
[4] = biological target: Hsc82 C61-ATTO 550 (S. cerevisiae) (UniProt P15108); test: FRET or BRET; FRET chase: tenfold excess of unlabeled Hsp90 added to the preformed FRET complex (400 nM), without nucleotide, 30 °C; apparent
[5] = biological target: Hsc82 C61-ATTO 550 (S. cerevisiae) (UniProt P15108); test: FRET or BRET; subunit exchange after mixing of NTD- and MD-labeled dimers, no nucleotide; standard buffer (40 mM HEPES pH 7.5, 150 mM KCl, 5 mM MgCl2), 30 °C
[6] = biological target: Hsp82 protomer of the NM-FRET heterodimer (S. cerevisiae) (UniProt P02829); test: as above
[7] = biological target: Hsp82 C61-ATTO 550 (S. cerevisiae) (UniProt P02829); test: FRET or BRET; FRET chase: tenfold excess of unlabeled Hsp90 added to the FRET complex preequilibrated 30 min with 2 mM ATP, 30 °C; apparent
[8] = biological target: Hsp82 C61-ATTO 550 (S. cerevisiae) (UniProt P02829); test: FRET or BRET; subunit exchange after mixing of NTD- and MD-labeled dimers, no nucleotide; standard buffer (40 mM HEPES pH 7.5, 150 mM KCl, 5 mM MgCl2), 30 °C

## Cpr6 (from UniProt P53691 1-371) (natural protein)
[1]
  ATPγS-induced closing rate kapp of the Hsc82 NM-FRET dimer (C61-ATTO 550 with C381-ATTO 488 protomers) with 4 µM Cpr6, percentage of kapp without co-chaperone: 108%
[2]
  ATPγS-induced closing rate kapp of the Hsp82 NM-FRET dimer (C61-ATTO 550 with C385-ATTO 488 protomers) with 4 µM Cpr6, percentage of kapp without co-chaperone: 239%

## Hsc82 C381-ATTO 488 (from UniProt P15108 1-705) (natural protein)
[3]
  reopening of closed state rate, with ATP (kapp as headed; apparent half-life by the legend): 0.7 min⁻¹
[4]
  reopening of closed state rate, without nucleotide (t½): 32 s
[5]
  subunit exchange rate (kse): 0.037 s⁻¹

## Hsc82 protomer of the NM-FRET heterodimer (from UniProt P15108 1-705) (natural protein)
[6]
  subunit exchange rate (kse): 0.03 s⁻¹

## Hsp82 C385-ATTO 488 (from UniProt P02829 1-709) (natural protein)
[7]
  reopening of closed state rate, with ATP (kapp as headed; apparent half-life by the legend): 0.7 min⁻¹
[8]
  subunit exchange rate (kse): 0.034 s⁻¹

## p23/Sba1 (from UniProt P28707 1-216) (natural protein)
[1]
  ATPγS-induced closing rate kapp of the Hsc82 NM-FRET dimer (C61-ATTO 550 with C381-ATTO 488 protomers) with 4 µM Sba1, percentage of kapp without co-chaperone: 78%

B1: Aha1 (natural protein)
chain: MVVNNPNNWHWVDKNCIGWAKEYFKQKLVGVEAGSVKDKKYAKIKSVSSIEGDCEVNQRKGKVISLFDLKITVLIEGHVDSKDGSALPFEGSINVPEVAFDSEASSYQFDISIFKETSELSEAKPLIRSELLPKLRQIFQQFGKDLLATHGNDIQVPESQVKSNYTRGNQKSSFTEIKDSASKPKKNALPSSTSTSAPVSSTNKVPQNGSGNSTSIYLEPTFNVPSSELYETFLDKQRILAWTRSAQFFNSGPKLETKEKFELFGGNVISELVSCEKDKKLVFHWKLKDWSAPFNSTIEMTFHESQEFHETKLQVKWTGIPVGEEDRVRANFEEYYVRSIKLTFGFGAVL
[1]
  ATPγS-induced closing rate kapp of the Hsc82 NM-FRET dimer (C61-ATTO 550 with C381-ATTO 488 protomers) with 4 µM Aha1, percentage of kapp without co-chaperone: 616%
[2]
  ATPγS-induced closing rate kapp of the Hsp82 NM-FRET dimer (C61-ATTO 550 with C385-ATTO 488 protomers) with 4 µM Aha1, percentage of kapp without co-chaperone: 868%

B2: Sti1 (natural protein)
chain: MSLTADEYKQQGNAAFTAKDYDKAIELFTKAIEVSETPNHVLYSNRSACYTSLKKFSDALNDANECVKINPSWSKGYNRLGAAHLGLGDLDEAESNYKKALELDASNKAAKEGLDQVHRTQQARQAQPDLGLTQLFADPNLIENLKKNPKTSEMMKDPQLVAKLIGYKQNPQAIGQDLFTDPRLMTIMATLMGVDLNMDDINQSNSMPKEPETSKSTEQKKDAEPQSDSTTSKENSSKAPQKEESKESEPMEVDEDDSKIEADKEKAEGNKFYKARQFDEAIEHYNKAWELHKDITYLNNRAAAEYEKGEYETAISTLNDAVEQGREMRADYKVISKSFARIGNAYHKLGDLKKTIEYYQKSLTEHRTADILTKLRNAEKELKKAEAEAYVNPEKAEEARLEGKEYFTKSDWPNAVKAYTEMIKRAPEDARGYSNRAAALAKLMSFPEAIADCNKAIEKDPNFVRAYIRKATAQIAVKEYASALETLDAARTKDAEVNNGSSAREIDQLYYKASQQRFQPGTSNETPEETYQRAMKDPEVAAIMQDPVMQSILQQAQQNPAALQEHMKNPEVFKKIQTLIAAGIIRTGR
[1]
  ATPγS-induced closing rate kapp of the Hsc82 NM-FRET dimer (C61-ATTO 550 with C381-ATTO 488 protomers) with 4 µM Sti1, percentage of kapp without co-chaperone: 19%
[2]
  ATPγS-induced closing rate kapp of the Hsp82 NM-FRET dimer (C61-ATTO 550 with C385-ATTO 488 protomers) with 4 µM Sti1, percentage of kapp without co-chaperone: 40%

Source: publication PMC6689086
